{
  "source": "patent US20070042345",
  "test_system": "F2C intracellular calcium ion indicator protein (GAP43 palmitoylation signal - ECFP - two alpha-spectrin calpain sensitive sequences - EYFP)",
  "data": [
    {"substance": "purified µ-calpain (Calpain I, Calbiochem, California, U.S.A.)", "values": [
      {"measurement": "Western blot for fragmented F2C after incubation with purified µ-calpain in Ca-EGTA buffer", "result": "fragmented F2C signal was not detected (data not shown)"}
    ]}
  ]
}
